Laboratory results published in patent publication US20210380960.

T1: Peptide 1: enriched in negatively charged residues
T1 chain: EEDEKRRKYTSWNSE

T2: Peptide 4: enriched in glycines
T2 chain: GGGGNENRYTSWNSE

T3: Peptide 7 (random peptide)
T3 chain: GISEQFKTNVLREYA

T4: Peptide 5: enriched with aromatic residues
T4 chain: YFLMNENRYTSWNSE

T5: Peptide 2: enriched in hydrophobic residues
T5 chain: LMLLNENRYTSWNSE


How the values were obtained:
[1] = molecular target: T1, Peptide 1: enriched in negatively …
[2] = molecular target: T2, Peptide 4: enriched in glycines
[3] = molecular target: T3, Peptide 7 (random peptide)
[4] = molecular target: T4, Peptide 5: enriched with aromatic …
[5] = molecular target: T5, Peptide 2: enriched in hydrophobic …

| Protein | hydrolysis of peptide 7 incorporated into a casein hydrolyzate, RP-HPLC [3] | kinetics of hydrolysis of the peptide, RP-HPLC after 5, 15 and 30 min [3] | hydrolysis of the peptide, RP-HPLC after 15 min at 40° C. [4] | hydrolysis of the peptide, RP-HPLC after 15 min at 60° C. [4] | other results |
| --- | --- | --- | --- | --- | --- |
| PhTET1 (protein) MMSMIEKLKKFTQIPGISGYEERIREEIIREIKDFADYKVDAIGNLIVELGEGEERILFMAHMDEIGLLITGITDEGKLRFRKVGGIDDRLLYGRHVNVVTEKGILDGVIGATPPHLSLERDKSVIPWYDLVIDIGAESKEEALELVKPLDFAVFKKHFSVLNGKYVSTRGLDDRFGVVALIEAIKDLVDHELEGKVIFAFTVQEEVGLKGAKFLANHYYPQYAFAIDSFACCSPLTGDVKLGKGPVIRAVDNSAIYSRDLARKVWSIAEKNGIEIQIGVTGGGTDASAFQDRSKTLALSVPIKYLHSEVETLHLNDLEKLVKLIEALAFEL |  |  |  |  | hydrolysis of the peptide, RP-HPLC after 15 min [1]: no hydrolysis activity is observed |
| PhTET4 (protein) MERIVKILREILEIPSPTGYTKEVMSYLEKFLKENEVNFYYTNKGALIAGNHPKPELVVIAHVDTLGAMVKEILPDGHLAFSRIGGLVLPTFEGEYCTIITRKGKKFRGTLLLRNPSAHVNREVGKKERKEENMYIRLDELVEKREDTEKLGIRPGDFIAFDPKFEYVNGFVKSHFLDDKASVAAILDLIIDMKDELEKYPVAFFFSPYEEVGHGGSAGYPPTTKELLVVDMGVVGEGVSGKETAVSIAAKDTTGPYDYDMTNRLIELAEENNIPYVVDVFPYYGSDGSAALRAGWDFRVALIGPGVHASHGMERTHVKGLLATKELIRAYIKWKG | only the peptide of interest is hydrolysed by the aminopeptidase PhTET4 and, this, almost completely | only the hydrolysis of the first glycine residue was observed |  |  | hydrolysis of the peptide, RP-HPLC after 15 min [2]: no hydrolysis activity is observed |
| PhTET3 (protein) MDLKGGESMVDWKLMQEIIEAPGVSGYEHLGIRDIVVDVLKEVADEVKVDKLGNVIAHFKGSSPRIMVAAHMDKIGVMVNHIDKDGYLHIVPIGGVLPETLVAQRIRFFTEKGERYGVVGVLPPHLRRGQEDKGSKIDWDQIVVDVGASSKEEAEEMGFRVGTVGEFAPNFTRLNEHRFATPYLDDRICLYAMIEAARQLGDHEADIYIVGSVQEEVGLRGARVASYAINPEVGIAMDVTFAKQPHDKGKIVPELGKGPVMDVGPNINPKLRAFADEVAKKYEIPLQVEPSPRPTGTDANVMQINKEGVATAVLSIPIRYMHSQVELADARDVDNTIKLAKALLEELKPMDFTP | the peptide of interest is not very hydrolyzed |  | a significant decrease in hydrolysis is observed. In fact, in this case, only the peptide pep-1 is visible and in very small quantity | there is an accumulation of the peptide pep-1 while the intact substrate peptide is no longer present in the medium | hydrolysis of the peptide, RP-HPLC after 15 min (PhTET3 alone, 5% experiment) [4]: there is a strong accumulation of the peptide pep-1 after the 15 minutes of incubation of the aminopeptidase with the substrate peptide; hydrolysis of the peptide, RP-HPLC and mass spectrometry [4]: significant accumulation of peptides whose tyrosine at the N-terminal end has been hydrolyzed |
| MjTET (protein) MSVVEYLKKLSKLHGISGREDSVREFMKKELEKYCDSVEIDNFGNLIAKRGNKGKKIMIAAHMDEIGLMVKYIDDNGFLKFTKIGGIYDPTILNQKVVVHGSKGDLIGVLGSKPPHRMKEEEKTKIIKYEDMFIDIGAESREEAIEMGVNIGTWVSFLSEVYDLGKNRLTGKAFDDRVGCAVLLEVMKRLSEEDIDCQVYAVGTVQEEVGLKGARVSAFKINPDVAIALDVTIAGDHPGIKKEDAPVDLGKGPVVGIVDASGRGLIAHPKVLDMIKAVSEKYKIDVQWEVGEGGTTDATAIHLTREGIPTGVISVPARYIHTPVEVIDKRDLEKTVELVYNCIKEVNNFF | the peptide of interest is not very hydrolyzed | we observe, in addition to the peptide pep-1, the peptides pep-2 and pep-3, and what corresponds to pep-4 ... between 15 and 30 min, the concentration of the substrate peptide pep-0 does not seem to have decreased | all the intermediate peptides are visible as well as the final product pep-4, and there is only a significant slowdown in hydrolysis | part of the intact peptide is still present in the reaction medium, while the residues of the hydrolysis products are present in almost equivalent amounts. There is a slight accumulation of the final hydrolysis product, the peptide pep-4 |  |
| PhTET2 (protein) MEVRNMVDYELLKKVVEAPGVSGYEFLGIRDVVIEEIKDYVDEVKVDKLGNVIAHKKGEGPKVMIAAHMDQIGLMVTHIEKNGFLRVAPIGGVDPKTLIAQRFKVWIDKGKFIYGVGASVPPHIQKPEDRKKAPDWDQIFIDIGAESKEEAEDMGVKIGTVITWDGRLERLGKHRFVSIAFDDRIAVYTILEVAKQLKDAKADVYFVATVQEEVGLRGARTSAFGIEPDYGFAIDVTIAADIPGTPEHKQVTHLGKGTAIKIMDRSVICHPTIVRWLEELAKKHEIPYQLEILLGGGTDAGAIHLTKAGVPTGALSVPARYIHSNTEVVDERDVDATVELMTKALENIHELKI |  |  |  |  | hydrolysis of the peptide, RP-HPLC after 15 min [5]: the first residues of the peptide were hydrolyzed more quickly in the presence of PhTET3 than in the presence of PhTET2 |
